The record followed here is publication PMC3934934, “The Self-Interaction of a Nodavirus Replicase Is Enhanced by Mitochondrial Membrane Lipids” (PLoS ONE, 2014).

Holding throughout (assay): pull-down; MBP fusion protein (1 µM) held on amylose resin, His-tagged protein (1 µM) in vitro translated in rabbit reticulocyte lysate; room temperature, 4 hrs; no lipids; Western blot with anti-His; signals given as % of FL to FL protein A self-interaction
Common to all, as to settings: one partner purified
On the technique in general: In western blotting, separated proteins are transferred to a membrane and probed.

In assay [1] the target is T1, MBP-protA fragment aa 1–254 (Wuhan nodavirus (WhNV), UniProt Q3KSM3 1-254).
T1 construct: also called 1–254 MBP/protA; source: E. coli strain TB1, purified (amylose resin); not shown: MBP, N-terminal, kept
T1 sequence: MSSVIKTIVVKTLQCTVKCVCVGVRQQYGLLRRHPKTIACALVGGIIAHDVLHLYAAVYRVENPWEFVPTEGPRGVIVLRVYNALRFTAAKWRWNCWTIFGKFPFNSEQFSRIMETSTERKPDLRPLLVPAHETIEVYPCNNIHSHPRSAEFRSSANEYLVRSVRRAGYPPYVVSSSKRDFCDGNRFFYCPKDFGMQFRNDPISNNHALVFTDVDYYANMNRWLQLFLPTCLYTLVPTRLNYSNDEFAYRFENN

Assay [2] concerns the target T2, MBP-protA fragment aa 1–480 (Wuhan nodavirus (WhNV), UniProt Q3KSM3 1-480).
T2 construct: also called 1–480 MBP/protA; source: E. coli strain TB1, purified (amylose resin); not shown: MBP, N-terminal, kept
T2 sequence: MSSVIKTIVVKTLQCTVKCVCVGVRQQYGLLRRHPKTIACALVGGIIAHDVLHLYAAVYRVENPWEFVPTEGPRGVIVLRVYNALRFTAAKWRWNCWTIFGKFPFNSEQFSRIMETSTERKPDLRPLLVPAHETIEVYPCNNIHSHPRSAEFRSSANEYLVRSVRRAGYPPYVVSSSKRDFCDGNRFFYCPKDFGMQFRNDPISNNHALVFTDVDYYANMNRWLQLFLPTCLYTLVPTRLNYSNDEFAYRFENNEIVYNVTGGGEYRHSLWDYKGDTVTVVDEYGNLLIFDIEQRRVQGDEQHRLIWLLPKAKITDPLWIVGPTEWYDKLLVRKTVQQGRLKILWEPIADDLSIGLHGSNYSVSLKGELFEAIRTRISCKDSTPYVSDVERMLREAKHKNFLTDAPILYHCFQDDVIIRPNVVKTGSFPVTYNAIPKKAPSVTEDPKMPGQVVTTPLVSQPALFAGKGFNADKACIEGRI

Assay [3] concerns the target T3, MBP-protA fragment aa 1–659 (Wuhan nodavirus (WhNV), UniProt Q3KSM3 1-659).
T3 construct: also called 1–659 MBP/protA; source: E. coli strain TB1, purified (amylose resin); not shown: MBP, N-terminal, kept
T3 sequence: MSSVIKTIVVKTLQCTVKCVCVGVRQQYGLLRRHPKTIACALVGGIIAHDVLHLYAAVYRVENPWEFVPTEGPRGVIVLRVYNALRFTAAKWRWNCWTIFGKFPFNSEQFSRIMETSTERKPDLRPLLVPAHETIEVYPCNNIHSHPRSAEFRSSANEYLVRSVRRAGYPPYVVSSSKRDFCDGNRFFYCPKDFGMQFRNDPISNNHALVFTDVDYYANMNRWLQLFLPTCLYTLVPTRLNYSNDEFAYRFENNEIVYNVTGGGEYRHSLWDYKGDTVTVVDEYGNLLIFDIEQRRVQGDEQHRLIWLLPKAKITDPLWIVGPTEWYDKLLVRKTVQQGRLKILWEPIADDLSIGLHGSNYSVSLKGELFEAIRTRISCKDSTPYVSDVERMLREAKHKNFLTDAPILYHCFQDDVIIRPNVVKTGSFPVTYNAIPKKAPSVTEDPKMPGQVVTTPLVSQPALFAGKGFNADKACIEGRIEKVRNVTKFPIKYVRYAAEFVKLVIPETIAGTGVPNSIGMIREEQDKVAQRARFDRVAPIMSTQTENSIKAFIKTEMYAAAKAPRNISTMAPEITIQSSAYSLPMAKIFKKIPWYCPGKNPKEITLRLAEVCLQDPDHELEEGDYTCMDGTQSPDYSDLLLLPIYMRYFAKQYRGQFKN

For assay [4], the target named is T4, MBP-protA fragment aa 255–480 (Wuhan nodavirus (WhNV), UniProt Q3KSM3 255-480).
T4 construct: source: E. coli strain TB1, purified (amylose resin); not shown: MBP, N-terminal, kept
T4 sequence: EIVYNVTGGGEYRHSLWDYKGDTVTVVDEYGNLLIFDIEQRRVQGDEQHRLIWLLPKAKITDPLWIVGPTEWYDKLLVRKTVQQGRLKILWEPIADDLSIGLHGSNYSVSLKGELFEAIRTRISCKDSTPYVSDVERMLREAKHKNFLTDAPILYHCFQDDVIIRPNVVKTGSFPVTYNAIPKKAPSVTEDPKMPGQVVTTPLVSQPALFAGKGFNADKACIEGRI

B1: His-tagged WhNV protein A, in vitro translated (natural protein)
chain: MSSVIKTIVVKTLQCTVKCVCVGVRQQYGLLRRHPKTIACALVGGIIAHDVLHLYAAVYRVENPWEFVPTEGPRGVIVLRVYNALRFTAAKWRWNCWTIFGKFPFNSEQFSRIMETSTERKPDLRPLLVPAHETIEVYPCNNIHSHPRSAEFRSSANEYLVRSVRRAGYPPYVVSSSKRDFCDGNRFFYCPKDFGMQFRNDPISNNHALVFTDVDYYANMNRWLQLFLPTCLYTLVPTRLNYSNDEFAYRFENNEIVYNVTGGGEYRHSLWDYKGDTVTVVDEYGNLLIFDIEQRRVQGDEQHRLIWLLPKAKITDPLWIVGPTEWYDKLLVRKTVQQGRLKILWEPIADDLSIGLHGSNYSVSLKGELFEAIRTRISCKDSTPYVSDVERMLREAKHKNFLTDAPILYHCFQDDVIIRPNVVKTGSFPVTYNAIPKKAPSVTEDPKMPGQVVTTPLVSQPALFAGKGFNADKACIEGRIEKVRNVTKFPIKYVRYAAEFVKLVIPETIAGTGVPNSIGMIREEQDKVAQRARFDRVAPIMSTQTENSIKAFIKTEMYAAAKAPRNISTMAPEITIQSSAYSLPMAKIFKKIPWYCPGKNPKEITLRLAEVCLQDPDHELEEGDYTCMDGTQSPDYSDLLLLPIYMRYFAKQYRGQFKNLYNQIYKQRATTSSGVPYNPEMTIRSGSSITTHAGTLNNAFNIYAALRDMGYDETTAWDKVGAVFGDDSLNANHQGEFHSYIEHVTKVLGMRYKSNLRERGQPVLFLGRYFVDPITSYDSFADPMRTIGKLHATANKNVSVEQGAANKAHGYITTDSKTPIIGAWARRVLEITKKKFKNGTGEEQYRCSNAWPQKDEAAIRAAMAAVLEVDEAQLIAQNEAVLKVNSLDQFPVVFDTYYDHKQLAEVDGQLVGTDLHIKEEDERQPETSIDSVPSTGPPPSNGDPNAGGKPTDGPSKGKRKVKGRRPRTAGDPATLRLTDAGSSRRVKPPRKLRPEAKRGGRPIETLVFKNSSLS
notes: also called His-protA; FL His-protA; source: in vitro translated in nuclease-treated rabbit reticulocyte lysates
Regarding B1, the “self-interaction efficiency, % of FL to FL protein A self-interaction” value in assay [1] worked out at 67%; in assay [2], 94%; in assay [3] it was 96%; in assay [4], 52%.
